Source: publication PMC5018819 (Scientific Reports, 2016)

How the values were obtained:
[1] = substrate: NCCO; assay: kinetic analysis of recombinant enzyme (substrate saturation); assay type: biochemical, P. falciparum; conditions: Etn varied, ATP constant, pH 7.8
Protocol: (§1) A continuous spectrophotometric 96-well plate assay was established for CK and EK activity based on an assay described. […] The reaction was initiated by addition of enzyme or substrate, as appropriate, and the rate of reaction was monitored by following the decrease in absorbance at 341 nm for 10 min at room temperature using a Thermo Multiska spectrophotometer. Experiments were carried out to ensure that coupling enzymes were not rate-limiting under any of the conditions used and control experiments lacking substrates and/or enzyme were carried out to correct for any background rate.
(§2) One substrate was held constant at the concentration specified above while the second substrate was varied. Any ATPase activity was controlled for and subtracted from the rates (PfEK only). Curves were plotted and Km and Vmax values estimated using Grafit 5 (Erithacus Software Ltd).

[2] = substrate: Nc1ncnc2c1ncn2[C@@H]1O[C@H](COP(=O)(O)OP(=O)(O)OP(=O)(O)O)[C@@H](O)[C@H]1O; assay: as above; assay type: biochemical, P. falciparum; conditions: ATP varied, pH 7.8
Protocol: as §1, §2

[3] = substrate: C[N+](C)(C)CCO; assay: purified protein, by the assay type; conditions: other: PfCK, Cho varied, ATP constant; pH 7.8

B1: PfEK (Plasmodium falciparum 3D7) (protein)
chain: EYQLREIDESEKEITQQRKKNSVTTKNFDNLSNSNSQITEMTNEQGVIPLREKDLTINVGDNRNLKVEEFMTNFISNVFENKNALFLYCKYVLLFYGKELLNENNVESLNFEIIKGGITNILVKVEDNIHQNKYLIRLYGPKTSEIINREREKLISNILCDKNISKKIYVFFPNGRIEEFKDGYALSREDIKNKDFQKEIAENLRILHDIQLDDTIYKKLQALQNIQGNRSSFLWSTLWKYFNTLKEERQKKYSFNPKAYILKLIDFDMLESIITEIQELCCKKNSPVVLCHCDLLSSNIIKTEGSSISFIDFEYSCPMERAYDIANHFNEYAGFNCEWDLTPNRSEEYHFIKHYLKTDDEQLINQLIDEIQPFYVCSHIVWGLWALLQGLHSVIDFDFINYGMTRLTAAFSVKFRSKL
Km ([1]; other: PfEK): 80 ± 20 µM
Vmax ([1]; other: PfEK): 0.03 µmol/min/mg
kcat ([1]; other: PfEK): 0.025 s⁻¹
kcat/Km ([1]; other: PfEK): 310 M⁻¹ s⁻¹
Km ([2]; other: PfEK): 70 ± 30 µM

B2: PfCK (Plasmodium falciparum 3D7) (protein)
chain: MESKICDPIGLDKNKFRKVEEENEENSKIVENGQMTYNDDLEMFTTIQLNQEIDIRKNPFPLHMINQKNDIPLCAQEFSKLTDPLYIKKICLEKVHDWSRCNEDDVCVNQILSGLTNQLFEVSIKEDTAIEYRITRRHVLFRIYGKDVDALYNPLSEFEVYKTMSKYRIAPLLLNTFDGGRIEEWLYGDPLSIDDLKNKSILVGIANVLGKFHTLSRKRHLPEHWDKTPCVFKMMDRWRLAVSNYKNLDKVTLDINKYIQESHKFLKFIKIYTQIENIANDIVFCHNDLQENNIMNTNKCLRLIDFEYSGYNFLSADIANFFIETTIDYSYNAYPFFIINKKNYISYESRILFVTTYLSKYLDDSTAASDQDIIDQFLEAIEVQALGLHLIWAFWSIIRGYQTKSYNEFDFFLYAKERLKMYDEQKQYLMSKNIIKDYDD
notes: made in house
Km ([1]; other: PfCK): 3300 ± 300 µM
Vmax ([1]; other: PfCK): 1.7 µmol/min/mg
kcat ([1]; other: PfCK): 1.5 s⁻¹
kcat/Km ([1]; other: PfCK): 450 M⁻¹ s⁻¹
Km ([2]; other: PfCK): 130 ± 10 µM
Km [3]: 210 ± 30 µM
Vmax [3]: 3.3 µmol/min/mg
kcat [3]: 2.9 s⁻¹
kcat/Km [3]: 13800 M⁻¹ s⁻¹
